Data taken from article PMC8575462, “PP2A/B55α substrate recruitment as defined by the retinoblastoma-related protein p107” (eLife, 2021).

How the values were obtained:
[1] = molecular target: purified PP2A/B55α holoenzyme (trimeric Flag-B55α/PP2A holoenzyme), P63151;P30153;P67775; experiment: peptide competition of GST-p107 R1R2 pull-down of purified PP2A/B55α, western blot quantified with ImageJ; settings: lower B55α signal = peptide competes for B55α, read off a plot
[2] = molecular target: B55α; experiment: YFP pulldown, mass spectrometry; settings: -log10 p-value est. 2.6; read off a plot
[3] = molecular target: PP2A/A; experiment: YFP pulldown, mass spectrometry; settings: -log10 p-value est. 2.2; read off a plot
[4] = molecular target: Flag-pRB (UniProt P06400); experiment: co-immunoprecipitation (anti-Myc IP), western blot quantitation; settings: 293T cells, co-transfected; parent: est. 1.0; read off a plot
Flag-pRB, sequence (P06400 whole entry): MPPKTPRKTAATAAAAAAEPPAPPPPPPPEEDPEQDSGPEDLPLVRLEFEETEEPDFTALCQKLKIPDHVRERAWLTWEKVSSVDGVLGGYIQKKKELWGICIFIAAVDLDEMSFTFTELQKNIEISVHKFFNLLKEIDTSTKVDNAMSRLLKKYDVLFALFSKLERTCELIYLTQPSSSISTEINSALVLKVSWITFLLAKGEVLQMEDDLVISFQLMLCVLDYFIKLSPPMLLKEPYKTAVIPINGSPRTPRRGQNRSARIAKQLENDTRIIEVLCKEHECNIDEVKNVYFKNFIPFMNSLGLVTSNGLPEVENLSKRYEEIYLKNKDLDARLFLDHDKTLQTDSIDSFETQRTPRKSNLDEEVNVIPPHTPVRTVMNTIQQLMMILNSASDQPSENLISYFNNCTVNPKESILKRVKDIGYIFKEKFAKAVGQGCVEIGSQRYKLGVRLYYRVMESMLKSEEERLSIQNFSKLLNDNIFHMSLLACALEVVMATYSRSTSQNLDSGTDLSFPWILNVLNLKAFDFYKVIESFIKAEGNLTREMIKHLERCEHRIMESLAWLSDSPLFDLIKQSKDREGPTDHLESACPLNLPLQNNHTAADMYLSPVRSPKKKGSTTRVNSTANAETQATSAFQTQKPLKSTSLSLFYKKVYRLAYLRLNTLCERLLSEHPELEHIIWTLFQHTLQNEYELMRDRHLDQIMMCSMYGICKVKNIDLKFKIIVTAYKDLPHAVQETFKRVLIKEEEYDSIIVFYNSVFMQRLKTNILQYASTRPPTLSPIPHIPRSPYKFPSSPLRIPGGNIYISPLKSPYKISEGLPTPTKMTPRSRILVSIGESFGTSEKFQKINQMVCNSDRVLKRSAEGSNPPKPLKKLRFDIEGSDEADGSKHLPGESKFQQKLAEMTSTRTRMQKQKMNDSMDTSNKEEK

[5] = molecular target: T1, purified monomeric full-length B55α (M1-N447) (UniProt P63151 1-447); experiment: NMR titration; 2D [1H,15N] HSQC of 15N-labeled p107 (M612-S687) with and without unlabeled B55α mixed at 1:1 ratio; 283 K; 20 mM sodium phosphate pH 6.8, 250 or 50 mM NaCl, 0.5 mM TCEP; settings: both partners purified
T1 construct: B55α M1-N447; also called B55α_(1-447); purified B55α; source: Expi293F, transfected, purified (GFP-nanobody beads, TEV cleavage, Mono Q); not shown: His6, N-terminal, cleaved; GFP, N-terminal, cleaved
T1 sequence (looked up): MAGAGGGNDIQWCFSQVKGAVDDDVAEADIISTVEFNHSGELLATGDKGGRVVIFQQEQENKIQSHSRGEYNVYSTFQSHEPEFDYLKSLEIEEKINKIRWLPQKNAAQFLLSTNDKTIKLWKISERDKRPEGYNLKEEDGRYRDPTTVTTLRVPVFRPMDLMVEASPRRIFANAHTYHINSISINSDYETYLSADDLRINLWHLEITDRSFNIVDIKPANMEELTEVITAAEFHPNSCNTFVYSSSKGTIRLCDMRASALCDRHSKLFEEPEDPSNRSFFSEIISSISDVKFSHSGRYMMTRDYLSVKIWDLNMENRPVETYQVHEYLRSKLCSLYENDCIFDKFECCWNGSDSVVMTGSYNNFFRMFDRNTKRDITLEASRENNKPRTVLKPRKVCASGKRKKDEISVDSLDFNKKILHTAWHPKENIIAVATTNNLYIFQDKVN

[6] = Peptides (at 300 µM), no-peptide control est. 0.68, parent: est. 0.08
[7] = Peptides (at 300 µM), no-peptide control est. 0.68, parent: est. 0.09
[8] = Peptides (at 300 µM), no-peptide control est. 0.72, parent: est. 0.32
[9] = peptide 120 µM, no-peptide control est. 0.68
[10] = peptide 240 µM, no-peptide control est. 0.68, parent: est. 0.07

Molecule: R1 peptide (synthetic p107 peptide encompassing the R1 region) P620A
- response [1, 6]: 0.2

Molecule: pS615-R1 phosphopeptide, wildtype H619A
- response [1, 7]: 0.6

Molecule: R1 peptide (synthetic p107 peptide encompassing the R1 region) K623A
- response [1, 8]: 0.03

Molecule: R1 peptide (synthetic p107 peptide encompassing the R1 region) M618A
- response [1, 6]: 0.3

Molecule: R1 peptide (synthetic p107 peptide encompassing the R1 region) M618A; H619A; P620A
- response [1, 9]: 0.43
- response [1, 10]: 0.41

Molecule: R1 peptide (synthetic p107 peptide encompassing the R1 region) R626A
- response [1, 8]: 0.08

Molecule: R1 peptide (synthetic p107 peptide encompassing the R1 region) T627A; D628A; S629A
- response [1, 9]: 0.04
- response [1, 10]: 0.02

Molecule: R1 peptide (synthetic p107 peptide encompassing the R1 region) R621A
- response [1, 8]: 0.55

Molecule: GFP-p107-R1 (four copies of R1) H619A; R621A; V622A; V625A
- other: log2 ratio WT-Mut [2]: 5.5
- other: log2 ratio WT-Mut [3]: 3.2

Molecule: R1 peptide (synthetic p107 peptide encompassing the R1 region) E624A
- response [1, 6]: 0.02

Molecule: R1 peptide (synthetic p107 peptide encompassing the R1 region) S615A; P616A; L617A
- response [1, 9]: 0.25
- response [1, 10]: 0.1

Molecule: R1 peptide (synthetic p107 peptide encompassing the R1 region) R621A; V622A; K623A
- response [1, 9]: 0.8
- response [1, 10]: 0.92

Molecule: R1 peptide (synthetic p107 peptide encompassing the R1 region) E624A; V625A; R626A
- response [1, 9]: 0.56
- response [1, 10]: 0.57

Molecule: Myc-B55α wild type (from UniProt P63151) EEK-AAA
- ratio to parent [4]: 0.28

Molecule: R1 peptide (synthetic p107 peptide encompassing the R1 region) V622A
- response [1, 6]: 0.88

Molecule: R1 peptide (synthetic p107 peptide encompassing the R1 region) H619A
- response [1, 8]: 0.38

Molecule: pS615-R1 phosphopeptide, wildtype R621A
- response [1, 7]: 0.82

Molecule: R1 peptide (synthetic p107 peptide encompassing the R1 region) V625A
- response [1, 6]: 0.98

B1: p107 (M612-S687) (domain or fragment, UniProt P28749 612-687, looked up)
chain: MPMSPLMHPRVKEVRTDSGSLRRDMQPLSPISVHERYSSPTAGSAKRRLFGEDPPKEMLMDKIITEGTKLKIAPSS
modifications: 15N-labeled
notes: p107 residues M612-S687, which include R1, R2 and R3; also called p107_(612-687); source: E. coli BL21, purified (HisTrap, TEV cleavage, heating at 80°C, SEC); not shown: His6, N-terminal, cleaved; MBP, N-terminal, cleaved
- binding result [5]: binds
